This experiment addresses 161P2F10b (UniProt O14638). The experiment in a line: saturation binding ELISA; relative affinity. Background: In an ELISA, binding on a coated surface is turned into a signal by an enzyme label.

This passage reports Kd results from patent US20030206905A1.

Broadly, the Kd is the concentration at which binding is half-saturated. Higher therefore signals lower affinity. On to 97A6(CD203c), for which the Kd turned out to be 0.28 nM.
